This is an account of results in ChEMBL document CHEMBL1127724, “Design and synthesis of 6-fluoropurine acyclonucleosides : potential prodrugs of acyclovir and ganciclovir” (Bioorg Med Chem Lett, 1994).

What is called Km is the concentration of substrate that gives half-maximal velocity.

Substrate in data set [1]: Nc1ncnc2c1ncn2[C@@H]1O[C@H](CO)[C@@H](O)[C@H]1O
As to the kind of experiment: Michaelis-Menten constant for Calf intestinal mucosa adenosine deaminase was determined.

Substrate in data set [2]: Nc1ncnc2c1ncn2[C@@H]1O[C@H](CO)[C@@H](O)[C@H]1O
As to the kind of experiment: Vmax for Calf intestinal mucosa adenosine deaminase was determined.

B1: Adenosine deaminase (Bos taurus), P56658 (protein)
chain: MAQTPAFNKPKVELHVHLDGAIKPETILYYGRKRGIALPADTPEELQNIIGMDKPLSLPEFLAKFDYYMPAIAGCREAVKRIAYEFVEMKAKDGVVYVEVRYSPHLLANSKVEPIPWNQAEGDLTPDEVVSLVNQGLQEGERDFGVKVRSILCCMRHQPSWSSEVVELCKKYREQTVVAIDLAGDETIEGSSLFPGHVKAYAEAVKSGVHRTVHAGEVGSANVVKEAVDTLKTERLGHGYHTLEDATLYNRLRQENMHFEVCPWSSYLTGAWKPDTEHPVVRFKNDQVNYSLNTDDPLIFKSTLDTDYQMTKNEMGFTEEEFKRLNINAAKSSFLPEDEKKELLDLLYKAYGMPSPASAEQCL
In the case of B1, in data set [1], the Km was found to be 50.5 µM. The Vmax (uM min-1 unit-1) in data set [2] is 0.76.
